{
  "source": "patent US20190300576A1",
  "about": "(MIT, published 2019)",
  "binders": {"B1": {"name": "peptide 8b (peptide)", "peptide": "Ac-LTLEHYWAQLTSK-NH2", "notes": "Text says 3Phe to Leu or Tyr (8a and 9a)"}, "B2": {"name": "peptide 3a (peptide)", "peptide": "Biotin-LTFPHYWAELTSK-NH2", "SMILES": "CC(C)C[C@H](NC(=O)CCCC[C@@H]1SC[C@@H]2NC(=O)N[C@@H]21)C(=O)N[C@H](C(=O)N[C@@H](Cc1ccccc1)C(=O)N1CCC[C@H]1C(=O)N[C@@H](Cc1c[nH]cn1)C(=O)N[C@@H](Cc1ccc(O)cc1)C(=O)N[C@@H](Cc1c[nH]c2ccccc12)C(=O)N[C@@H](C)C(=O)N[C@@H](CCC(=O)O)C(=O)N[C@@H](CC(C)C)C(=O)N[C@H](C(=O)N[C@@H](CO)C(=O)N[C@@H](CCCCN)C(N)=O)[C@@H](C)O)[C@@H](C)O"}, "B3": {"name": "peptide 11b-S1 (peptide)", "peptide": "Ac-LT[F2f][Dap]EYWAQ[Cba][Dap]SAA-NH2", "modifications": "linker 4-11 via perfluoroaryl sulfone", "notes": "Macrocyclic"}, "B4": {"name": "peptide 10a-M (peptide)", "peptide": "Biotin-LT[F2f][R8]EY[Hexa]AQ[Cba][S5]SAA-NH2", "modifications": "staple 4-11", "notes": "Macrocyclic"}, "B5": {"name": "peptide 11a (peptide)", "peptide": "Biotin-LT[F2f]EHYWAQ[Cba]TSK-NH2"}, "B6": {"name": "peptide 19a (peptide)", "peptide": "Biotin-LT[F2f]EHYWAQ[Hexa]TSK-NH2"}, "B7": {"name": "peptide 25a (peptide)", "peptide": "Biotin-LT[F2f]EHYWAQ[F2f]TSK-NH2"}, "B8": {"name": "peptide 10a (peptide)", "peptide": "Biotin-LT[F2f]EHY[Hexa]AQ[Cba]TSK-NH2"}, "B9": {"name": "peptide 22a (peptide)", "peptide": "Biotin-LT[F3f]EHY[Anta]AQ[Cba]TSK-NH2", "modifications": "reading uncertain; also: printed as LT(F3f)EHY(Anta)AQ(Cba)TSK"}, "B10": {"name": "peptide ATSP-7040 (peptide)", "peptide": "LTF[R8]EYWAE[Cba][S5]SAA-NH2", "modifications": "staple 4-11; N-terminus assumed", "SMILES": "CC(C)C[C@H](N)C(=O)N[C@H](C(=O)N[C@@H](Cc1ccccc1)C(=O)N[C@]1(C)CCCCCCC=CCCC[C@@](C)(C(=O)N[C@@H](CO)C(=O)N[C@@H](C)C(=O)N[C@@H](C)C(N)=O)NC(=O)[C@H](CC2CCC2)NC(=O)[C@H](CCC(=O)O)NC(=O)[C@H](C)NC(=O)[C@H](Cc2c[nH]c3ccccc23)NC(=O)[C@H](Cc2ccc(O)cc2)NC(=O)[C@H](CCC(=O)O)NC1=O)[C@@H](C)O"}, "B11": {"name": "peptide 11b-M (peptide)", "peptide": "Ac-LT[F2f][R8]EFWAQ[Cba][S5]SAA-NH2", "modifications": "staple 4-11"}, "B12": {"name": "peptide 27b-M (peptide)", "peptide": "Ac-LT[F2f][R8]EY[Napa]AE[Cba]KSAA-NH2", "modifications": "staple (positions not given here); not fully specified (residue 11, bridges); reading uncertain"}, "B13": {"name": "peptide 10b-M unclosed (peptide)", "peptide": "Ac-LT[F2f][R8]EY[Hexa]AQ[Cba][S5]SAA-NH2", "modifications": "bridges not given here"}, "B14": {"name": "peptide 10b-S1 (peptide)", "peptide": "Ac-LT[F2f][Dap]EY[Hexa]AQ[Cba][Dap]SAA-NH2", "modifications": "bridge 4-11 via perfluorosulfone; reading uncertain"}, "B15": {"name": "peptide 10b-M (peptide)", "peptide": "Ac-LT[F2f][R8]EY[Hexa]AQ[Cba][S5]SAA-NH2", "modifications": "staple 4-11"}, "B16": {"name": "peptide 10b-S4 (peptide)", "peptide": "Ac-LT[F2f]KEY[Hexa]AQ[Cba]KSAA-NH2", "modifications": "linker 4-11 via perfluorosulfone; reading uncertain; also: printed as LT(F2f)KEY(Hexa)AQ(Cba)(K)SAA"}, "B17": {"name": "27b-S4 (peptide)", "peptide": "Ac-LT[F2f]KEY[Napa]AQ[Cba]KSAA-NH2", "modifications": "linker 4-11 via perfluorosulfone; reading uncertain"}, "B18": {"name": "peptide 11b-S4 (peptide)", "peptide": "Ac-LT[F2f]KEYWAE[Cba]KSAA-NH2", "modifications": "linker 4-11 via perfluorosulfone; reading uncertain; also: printed as LT(F2f)KEYWAE(Cba)KSAA"}, "B19": {"name": "peptide 7b (peptide)", "peptide": "Ac-LTFEHYWAQYTSK-NH2"}, "B20": {"name": "peptide 9b (peptide)", "peptide": "Ac-LTYEHYWAQLTSK-NH2", "notes": "as for B1"}},
  "note": "*1 amine or outer side, *2 acyl side, *3 side chain or, on linkers, in order; H or OH if unused. Bridges are numbered along the chain shown (N, C = ends). Where no end group is shown, it is not given here. [ ]: non-standard residue; d: D form. The star is where a group is joined. Hexa = hexylalanine = (2S)-2-aminononanoic acid, CCCCCCC[C@H](N[*:1])C(=O)[*:2]; Biotin = O=C1N[C@H]2[C@H](CS[C@H]2CCCCC(=O)*)N1; perfluorosulfone = not defined here; R8 = C=CCCCCCC[C@@](C)(N)C(=O)O; F2f = difluoro-L-phenylalanine; Cba = N[C@@H](CC1CCC1)C(=O)O; S5 = C=CCCC[C@](C)(N)C(=O)O; Anta = not defined here; Napa = not defined here; Dap = NC[C@H](N)C(=O)O; F3f = not defined here",
  "data": [
    {"biological_target": "T1, SUMO-^25-109MDM2 (UniProt Q00987 25-109)", "T1 construct": "range 25-109; Expressed in Rosetta (DE3) pLysS cells, MW=23 297 Da, used with the SUMO tag on; not shown: SUMO fusion tag (protein purified on Ni-NTA)", "assay": "BLI, acetylated peptide (in solution competition assay)", "units": {"Kd": "nM"}, "values": [
      {"binder": "B1", "Kd": 2700}
    ]},
    {"biological_target": "T1, SUMO-^25-109MDM2", "assay": "BLI, biotinylated peptide immobilized", "units": {"Kd": "nM"}, "values": [
      {"binder": "B2", "Kd": 80}
    ]},
    {"biological_target": "T1, SUMO-^25-109MDM2", "assay": "BLI, estimated in solution (competition assay) for acetylated construct", "units": {"Kd": "nM"}, "values": [
      {"binder": "B3", "Kd": 1}
    ]},
    {"biological_target": "T1, SUMO-^25-109MDM2", "assay": "BLI, peptide on streptavidin sensors, global fit", "units": {"Kd": "nM"}, "values": [
      {"binder": "B4", "Kd": 5},
      {"binder": "B5", "Kd": 2},
      {"binder": "B6", "Kd": 8},
      {"binder": "B7", "Kd": 20},
      {"binder": "B8", "Kd": 0.5},
      {"binder": "B9", "Kd": 10}
    ]},
    {"biological_target": "T1, SUMO-^25-109MDM2", "assay": "BLI, immobilized assay for biotinylated peptide", "units": {"Kd": "nM"}, "values": [
      {"binder": "B4", "Kd": 3}
    ]},
    {"biological_target": "MDM2 in MDM2 overexpressing SJSA-1 cells (UniProt Q00987 1-491, limits assumed)", "assay": "cell-based or functional assay", "units": {"IC50, viability of SJSA-1 cells": "µM"}, "values": [
      {"binder": "B3", "IC50, viability of SJSA-1 cells": 7.8},
      {"binder": "B10", "IC50, viability of SJSA-1 cells": 3},
      {"binder": "B11", "IC50, viability of SJSA-1 cells": 3.2},
      {"binder": "B12", "IC50, viability of SJSA-1 cells": 2.7},
      {"binder": "B13", "IC50, viability of SJSA-1 cells": 17},
      {"binder": "B14", "IC50, viability of SJSA-1 cells": "> 20"},
      {"binder": "B15", "IC50, viability of SJSA-1 cells": 2.4},
      {"binder": "B16", "IC50, viability of SJSA-1 cells": "> 20"},
      {"binder": "B17", "IC50, viability of SJSA-1 cells": "> 20"},
      {"binder": "B18", "IC50, viability of SJSA-1 cells": "> 20"}
    ]},
    {"biological_target": "T1, SUMO-^25-109MDM2", "assay": "BLI in-solution competition assay, free MDM2 read on immobilized 63a", "units": {"Kd": "nM"}, "values": [
      {"binder": "B19", "Kd": 490},
      {"binder": "B20", "Kd": 8700},
      {"binder": "B1", "Kd": 2500}
    ]}
  ]
}
